Data on 1 molecule can be found in US20190367620A1 (Merck KGaA, published 2019).

Substitutions are numbered along the chain they refer to.

Common to all, as to test: SPR; free energy change relative to wild-type D2
Test [1] concerns the target T1, FGFR1 D2 point mutant S107A (human, UniProt P11362 22-254).
T1 chain: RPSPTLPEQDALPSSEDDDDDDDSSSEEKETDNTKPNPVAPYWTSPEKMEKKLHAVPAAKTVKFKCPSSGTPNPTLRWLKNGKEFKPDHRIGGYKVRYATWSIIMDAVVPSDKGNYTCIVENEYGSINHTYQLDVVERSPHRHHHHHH
On the procedure:
(§1) Binding affinities of anti-FGFR1 antibodies to FGFR1 were measured by Surface Plasmon Resonance (SPR) using a GE Healthcare BIAcore 4000 instrument as follows. Goat anti-human Fc antibody (Jackson ImmunoResearch Laboratories #109-005-098) was first immobilized on BIAcore carboxymethylated dextran CM5 chip using direct coupling to free amino groups following the procedure described by the manufacturer. Antibodies were then captured on the CM5 biosensor chip to achieve approximately 200 response units (RU). Binding measurements were performed using the running HBS-EP+ buffer. A 2-fold dilution series of His-tagged FGFR1 proteins were injected at a flow rate of 30 μl/min at 25° C. Association rates (kₒₙ, per mol/s) and dissociation rates (koff, per s) were calculated using a simple 1:1 Langmuir binding model (Biacore 4000 Evaluation Software). The equilibrium dissociation constant (KD, mol) was calculated as the ratio of koff/kₒₙ.
(§2) To obtain a finer, residue-level mapping of the epitope and to complement the HD exchange data, molecular modelling and manual inspection of the crystal structure of FGFR1 [(Beenken et al. 2012); PDB record 3OJV] was used to select solvent exposed residues within and around the epitope identified by HD exchange. The selected residues were mutated either to alanine (large to small) or to glycine if the selected residue was alanine. In total 35 point mutants were designed, expressed and purified in HEK cells, and tested for binding to mAb #A08 using surface plasmon resonance as described in Example 1.8. The affinity of the antibody for wild-type and each mutant was determined and used to calculate the contribution of each epitope residue to the binding energy.
(§3) Variant were compared to wild-type D2. The change in the Gibbs free energy of binding of mutant relative to the wild-type D2 construct (ΔΔGₘᵤₜ) was derived from the ratio of the wild-type and mutant KD.

Test [2] addresses T2, FGFR1 D2 point mutant S102A (human, UniProt P11362 22-254).
T2 chain: T1 chain with S102A, A107S
On the procedure:
as §1, §2, §3

The target in test [3] is T3, FGFR1 D2 point mutant G92A (human, UniProt P11362 22-254).
T3 chain: T1 chain with G92A, A107S
On the procedure: as §1, §2, §3

Test [4] addresses T4, FGFR1 D2 point mutant K51A (human, UniProt P11362 22-254).
T4 chain: T1 chain with K51A, A107S
On the procedure:
as §1, §2, §3

The target of test [5] is T5, FGFR1 D2 point mutant R97A (human, UniProt P11362 22-254).
T5 chain: T1 chain with R97A, A107S
Here is the method:
as §1, §2, §3

The target of test [6] is T6, FGFR1 D2 point mutant P57A (human, UniProt P11362 22-254).
T6 chain: T1 chain with P57A, A107S
Here is the method:
as §1, §2, §3

Test [7] concerns the target T7, FGFR1 D2 point mutant P87A (human, UniProt P11362 22-254).
T7 chain: T1 chain with P87A, A107S
Here is the method:
as §1, §2, §3

In test [8] the target is T8, FGFR1 D2 point mutant V96A (human, UniProt P11362 22-254).
T8 chain: T1 chain with V96A, A107S
Here is the method: as §1, §2, §3

In test [9] the target is T9, FGFR1 D2 point mutant G93A (human, UniProt P11362 22-254).
T9 chain: T1 chain with G93A, A107S
On the procedure:
as §1, §2, §3

Test [10] has as its target T10, FGFR1 D2 point mutant A55G (human, UniProt P11362 22-254).
T10 chain: T1 chain with A55G, A107S
Here is the method:
as §1, §2, §3

B1: mAb #A08 (antibody, V domains shown)
VH: EVQLQESGPGLVKPSGTLSLTCAVSGGSISSNNWWSWVRQPPGKGLEWIGEIYHSGSTSYNPSLKSRVTISVDKSKNQFSLKLNSVTAADTAVYYCARGTDWFDPWGQGTLVTVSS
VL: QAVLTQPPSVSVAPGQTARITCGGNNIGSESVHWYQQKPGQAPVLVVYDDSDRPSGIPERFSGSNSGNTATLTISRVEAGDEADYYCQVWDSTSDHRVFGGGTKLTVL
notes: Only variable domains are tied to the name mAb #A08 (hit); also called #A08 hit; mAb #08
In the case of B1, the ΔΔGmut in test [1] is 0.13 kcal/mol; in test [2], -0.13 kcal/mol; in [3] it was 0.21 kcal/mol; in test [4] it was 0.27 kcal/mol; in test [5] it was 1.83 kcal/mol; in test [6] it was 0.44 kcal/mol. Besides, the ΔΔGmut in test [7] was 0.08 kcal/mol; in [8], -0.02 kcal/mol; in [9] it was 0.29 kcal/mol; in test [10], 0.07 kcal/mol.
